Columns and labels:
[1] = test system: MCF-7 cells; test: homophilic cell-cell adhesion assay (ratio NTC/NTE); format: cell-based
Description: (§1) FIG. 4: FIG. 4 illustrates in: (A), β-catenin phosphorylated by ALK at tyrosine 333 decreases the association of β-catenin with cadherin. Recombinant E-cadherin serine 692 was phosphorylated with CK2 and GSK3β and incubated with recombinant GST-β-catenin, with GST-β-catenin phosphorylated in vitro by ALK, with GST-β-catenin Y333F, or with GST-β-catenin K292A, Y333F, K335A. The GST-conjugated proteins were captured with glutathione-conjugated beads and the phospho-Ser692-E-cadherin that associated with the GST-conjugated proteins was eluted and analyzed in Western blots probed with anti-β-catenin and anti-E-cadherin antibodies. […] After incubation for 20 minutes at 37° C., β-catenin was then captured with glutathione beads and, after extensive washing, eluted with SDS buffer and analyzed in Western blots with either anti-pan-cadherin antibodies, anti-phospho-tyrosine antibodies, or anti-β-catenin antibodies to determine if β-catenin phosphorylated by ALK at tyrosine 333 associates with cadherin. […] The ratio of cells dissociated in calcium-containing media (NTC) vs. the cells dissociated in calcium-free media (NTE) (a “dissociation index,” see Experimental Procedures) was measured. […] The morphological appearance was then analyzed 36 hours later and compared with cells transfected with an equal amount of control empty vector. […]

[2] = test system: MCF10A cells; test: morphological epithelial to mesenchymal transition in transfected MCF10A cells; format: cell-based; conditions: MCF10A cells transfected with RPTPβ/ζ and ALK, stimulated with PTN
Description: as §1

[3] = test system: β-catenin; test: β-catenin import into nuclei of HUVS cells (Western blot of nuclear extracts); format: cell-based, human
Description: FIG. 13: FIG. 13 illustrates: (A) human umbilical vein stromal cells not stimulated or stimulated for 60 minutes with 1, 10, 25, 50, 100 and 200 ng/ml of PTN were used to isolate their nuclei and prepare lysates that were analyzed in Western blots probed with anti-β-catenin antibodies (upper panel) and anti-Orc-2 antibodies (lower panel). In (B), human umbilical vein stromal cells not stimulated or stimulated with 100 ng/ml of PTN for 5, 15, 30, 60 minutes were used to isolate their nuclei and prepare lysates that were analyzed in Western blots probed with anti-β-catenin antibodies (upper panel) and anti-Orc-2 antibodies (lower panel).
Cells at confluence were washed with PBS ×2 and incubated for 10 minutes in a lysis buffer containing 100 mM HEPES pH 7.9, 100 mM KCl, […], 1 mM DTT, Complete EDTA-free Protease Inhibitor Cocktail (Roche, Indianapolis, Ind.) and 0.04% IGEPAL (Sigma-Aldrich Co. Ltd, Poole, Dorset, UK). […] Samples were centrifuged and the supernatant nuclear extract was collected and analyzed in Western-blots as described below. […] It was detected with anti-Orc2 antibodies; tubulin was used to mark cytosolic fractions and detected with anti-tubulin antibodies. Samples of the nuclear fractions were used only if tubulin was not detected. […]

[4] = test system: β-catenin; test: ubiquitination of β-catenin in HUVS cells (Rad23 capture); format: cell-based, human; conditions: 15 and 30 minutes after stimulation with PTN
Description: FIG. 12: FIG. 12 illustrates: human umbilical vein stromal cells not stimulated (lane 1) or stimulated with 50 ng/ml of PTN for 15 (lane 2), or 30 minutes (lane 3) were used to prepare cell lysates that were incubated with Rad23-conjugated agarose beads to pull-down ubiquitinated proteins and analyzed in Western-blots probed with anti-β-catenin antibodies (upper panel) and reprobed with anti-ubiquitin antibodies (lower panel). Cells pre-incubated with LY294002 were stimulated with PTN for 15 minutes (lane 4). Cells pre-incubated with lactacystin were stimulated with PTN for 15 minutes (lane 5).
Human umbilical vein stromal cells were lysed in a buffer prepared with 50 mM Tris, pH 7.2, 150 mM NaCl pH 7.5, 1% NP40, 0.25% sodium deoxicholate, Complete EDTA-free Protease Inhibitor Cocktail and 2 mM sodium orthovanadate. […] The beads were washed 4 times with lysis buffer and analyzed using Western blots.
β-catenin is rapidly degraded through the ubiquitin proteasome proteolytic pathway, thereby setting steady state levels of β-catenin by balancing its degradation with new synthesis of this key regulatory protein. […] Proteins captured with Rad23 Sepharose were eluted and analyzed in Western blots probed with anti-β-catenin antibodies (FIG. 12, upper panel) and the blots were reprobed with anti-ubiquitin antibodies (FIG. 12, lower panel). […]

B1: pleiotrophin (protein, UniProt P21246 33-168, looked up)
Pleiotrophin: GKKEKPEKKVKKSDCGEWQWSVCVPTSGDCGLGTREGTRTGAECKQTMKTQRCKIPCNWKKQFGAECKYQFQAWGECDLNTALKTRTGSLKRALHNAECQKTVTISKPCGKLTKPKPQAESKKKKKEGKKQEKMLD
**Q.** B1 was tested. Which “ratio NTC/NTE” value ([1]; PTN-stimulated MCF7 cells expressing both RPTPβ/ζ and ALK) did it give?
**A.** about 0.38

**Q.** And the “ratio NTC/NTE” value ([1]; PTN-stimulated MCF-7 cells transfected with ALK alone)?
**A.** about 0.25

**Q.** What about the cell morphology [2] of the same molecule?
**A.** assumed a mesenchymal fibroblast-like shape

**Q.** What about the β-catenin in nuclei ([3]; 1-200 ng/ml PTN, 5-60 minutes) of the same molecule?
**A.** concentration and time-dependent increase

**Q.** And the “PTN concentration at which increase in nuclear β-catenin was seen” value ([3]; 60 minutes)?
**A.** 10 ng/mL

**Q.** And the “ubiquitinated β-catenin” value [4]?
**A.** decreased sharply

From patent US20210009673A1, “METHODS FOR REGULATING BREAST CANCERS” (priority 2018, published 2021)
